{"source": "IntAct's records for PubMed 9847329", "parents": {"B1": {"name": "Protein Rep68 (Adeno-associated virus 2 (isolate Srivastava/1982)), P03132 (parent)", "chain": "MPGFYEIVIKVPSDLDGHLPGISDSFVNWVAEKEWELPPDSDMDLNLIEQAPLTVAEKLQRDFLTEWRRVSKAPEALFFVQFEKGESYFHMHVLVETTGVKSMVLGRFLSQIREKLIQRIYRGIEPTLPNWFAVTKTRNGAGGGNKVVDECYIPNYLLPKTQPELQWAWTNMEQYLSACLNLTERKRLVAQHLTHVSQTQEQNKENQNPNSDAPVIRSKTSARYMELVGWLVDKGITSEKQWIQEDQASYISFNAASNSRSQIKAALDNAGKIMSLTKTAPDYLVGQQPVEDISSNRIYKILELNGYDPQYAASVFLGWATKKFGKRNTIWLFGPATTGKTNIAEAIAHTVPFYGCVNWTNENFPFNDCVDKMVIWWEEGKMTAKVVESAKAILGGSKVRVDQKCKSSAQIDPTPVIVTSNTNMCAVIDGNSTTFEHQQPLQDRMFKFELTRRLDHDFGKVTKQEVKDFFRWAKDHVVEVEHEFYVKKGGAKKRPAPSDADISEPKRVRESVAQPSTSDAEASINYADRLARGHSL"}}, "data": [{"variants_of": "B1", "details": "with tcp4_human SUB1, P53999", "values": [{"variant": "MPGFYEIVIKVPSDLDGHLPGISDSFVNWVAEKEWELPPDSDMDLNLIEQAPLTVAEKLQRDFLTEWRRVSKAPEALFFVQFEKGESYFHMHVLVETTGVKSMVLGRFLSQIREKLIQRIYRGIEPTLPNWFAVTKTRNGAGGGNKVVDECYIPNYLLPKTQPELQWAWTNMEQYLSACLNLTERKRLVAQHLTHVSQTQEQNKENQNPNSDAPVIRSKTSARYMELVGWLVDKGITSEKQWIQEDQASYISFNAASNSRSQIKAALDNAGKIMSLTKTAPDYLVGQQPVEDISSNRIYKILELNGYDPQYAASVFLGWATKKFGKRNTIWLFGPATTGHTNIAEAIAHTVPFYGCVNWTNENFPFNDCVDKMVIWWEEGKMTAKVVESAKAILGGSKVRVDQKCKSSAQIDPTPVIVTSNTNMCAVIDGNSTTFEHQQPLQDRMFKFELTRRLDHDFGKVTKQEVKDFFRWAKDHVVEVEHEFYVKKGGAKKRPAPSDADISEPKRVRESVAQPSTSDAEASINYADRLARGHSL", "note": "[K340H]", "effect of a mutation on the interaction": "disrupting interaction"}]}]}
